# Test results from publication PMC6282176.
# Target: C-terminally truncated fragment of DdSkp1 (residues 1–122) (Dictyostelium discoideum) (UniProt P52285)
# Assay: AUC
substance,measurement,value
C-terminally truncated fragment of DdSkp1 (residues 1–122) (from UniProt P52285 1-122) (domain or fragment),stoichiometry N,2
